The experiment addresses T1, ScSch9-His (S. cerevisiae, UniProt P11792 1-824).
T1 construct: Sch9 kinase of S. cerevisiae; SCH9 synthesized with a C-terminal 6xHis tag and cloned into the E. coli expression vector p41; also called recombinant ScSch9-His; source: E. coli BL21(DE3), purified (IMAC, Ni-NTA Sepharose); not shown: 6xHis, C-terminal, kept
T1 sequence (looked up): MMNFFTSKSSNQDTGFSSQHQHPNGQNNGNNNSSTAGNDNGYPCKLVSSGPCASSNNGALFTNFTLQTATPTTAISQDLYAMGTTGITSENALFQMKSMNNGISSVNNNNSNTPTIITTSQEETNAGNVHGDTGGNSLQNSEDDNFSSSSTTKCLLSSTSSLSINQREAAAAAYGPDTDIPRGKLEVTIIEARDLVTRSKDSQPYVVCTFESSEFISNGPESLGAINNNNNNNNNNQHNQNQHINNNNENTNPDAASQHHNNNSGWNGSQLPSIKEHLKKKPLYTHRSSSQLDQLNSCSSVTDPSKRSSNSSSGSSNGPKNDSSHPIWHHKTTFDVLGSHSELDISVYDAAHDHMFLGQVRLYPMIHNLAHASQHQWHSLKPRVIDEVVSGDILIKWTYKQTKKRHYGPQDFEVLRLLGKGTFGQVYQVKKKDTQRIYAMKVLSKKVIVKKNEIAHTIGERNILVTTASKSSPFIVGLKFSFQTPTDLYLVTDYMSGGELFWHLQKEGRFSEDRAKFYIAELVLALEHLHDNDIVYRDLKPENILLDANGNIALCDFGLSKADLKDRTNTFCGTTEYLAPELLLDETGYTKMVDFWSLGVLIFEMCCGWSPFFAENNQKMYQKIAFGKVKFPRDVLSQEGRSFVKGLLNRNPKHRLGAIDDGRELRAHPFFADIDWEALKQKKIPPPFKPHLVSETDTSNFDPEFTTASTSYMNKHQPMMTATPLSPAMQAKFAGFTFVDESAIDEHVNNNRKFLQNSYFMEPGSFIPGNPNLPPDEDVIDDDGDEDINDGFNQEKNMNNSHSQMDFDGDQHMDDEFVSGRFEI
As to the kind of experiment: co-IP; endogenous ScCst6 precipitated from S. cerevisiae WT lysate with rabbit anti-Cst6 antibody, bound to protein-G Sepharose beads, washed (IP buffer plus 500 mM NaCl), then incubated with 20 µg recombinant ScSch9-His for 3 h at 4°C; extensive washing; Western blot (anti-ScCst6, anti-6xHis). To be noted: both partners purified.

B1: ScCst6 (endogenous) (natural protein, UniProt P40535 1-587, looked up)
chain: MFTGQEYHSVDSNSNKQKDNNKRGIDDTSKILNNKIPHSVSDTSAAATTTSTMNNSALSRSLDPTDINYSTNMAGVVDQIHDYTTSNRNSLTPQYSIAAGNVNSHDRVVKPSANSNYQQAAYLRQQQQQDQRQQSPSMKTEEESQLYGDILMNSGVVQDMHQNLATHTNLSQLSSTRKSAPNDSTTAPTNASNIANTASVNKQMYFMNMNMNNNPHALNDPSILETLSPFFQPFGVDVAHLPMTNPPIFQSSLPGCDEPIRRRRISISNGQISQLGEDIETLENLHNTQPPPMPNFHNYNGLSQTRNVSNKPVFNQAVPVSSIPQYNAKKVINPTKDSALGDQSVIYSKSQQRNFVNAPSKNTPAESISDLEGMTTFAPTTGGENRGKSALRESHSNPSFTPKSQGSHLNLAANTQGNPIPGTTAWKRARLLERNRIAASKCRQRKKVAQLQLQKEFNEIKDENRILLKKLNYYEKLISKFKKFSKIHLREHEKLNKDSDNNVNGTNSSNKNESMTVDSLKIIEELLMIDSDVTEVDKDTGKIIAIKHEPYSQRFGSDTDDDDIDLKPVEGGKDPDNQSLPNSEKIK
notes: Transcription factor Cst6 (ATF/CREB family) of S. cerevisiae, endogenous protein of the wild type (BY4741); also called endogenous ScCst6; source: endogenous, S. cerevisiae WT lysate, immunopurified with anti-Cst6 antibody on protein-G Sepharose beads
Consider B1, for which the binding result was “binds”.
